Key:
PTPRG expressed on cells = target: T1, PTPRG expressed on cells (human, UniProt P23470 20-1445); experiment: cell surface interaction assay: query ECD tetramerised with fluorescent streptavidin on transfected cells, immunofluorescence
T1 construct: whole, on cells
From the text: (§1) FIG. 3H is a schematic showing the design of the cell surface interaction assay.
(§2) Experiments shown are representative of two independent assays. […] Scale bar=50 μm.

PTPRT expressed on cells = target: T2, PTPRT expressed on cells (human, UniProt O14522 26-1441); experiment: as above
T2 construct: whole, on cells
T2 sequence (looked up): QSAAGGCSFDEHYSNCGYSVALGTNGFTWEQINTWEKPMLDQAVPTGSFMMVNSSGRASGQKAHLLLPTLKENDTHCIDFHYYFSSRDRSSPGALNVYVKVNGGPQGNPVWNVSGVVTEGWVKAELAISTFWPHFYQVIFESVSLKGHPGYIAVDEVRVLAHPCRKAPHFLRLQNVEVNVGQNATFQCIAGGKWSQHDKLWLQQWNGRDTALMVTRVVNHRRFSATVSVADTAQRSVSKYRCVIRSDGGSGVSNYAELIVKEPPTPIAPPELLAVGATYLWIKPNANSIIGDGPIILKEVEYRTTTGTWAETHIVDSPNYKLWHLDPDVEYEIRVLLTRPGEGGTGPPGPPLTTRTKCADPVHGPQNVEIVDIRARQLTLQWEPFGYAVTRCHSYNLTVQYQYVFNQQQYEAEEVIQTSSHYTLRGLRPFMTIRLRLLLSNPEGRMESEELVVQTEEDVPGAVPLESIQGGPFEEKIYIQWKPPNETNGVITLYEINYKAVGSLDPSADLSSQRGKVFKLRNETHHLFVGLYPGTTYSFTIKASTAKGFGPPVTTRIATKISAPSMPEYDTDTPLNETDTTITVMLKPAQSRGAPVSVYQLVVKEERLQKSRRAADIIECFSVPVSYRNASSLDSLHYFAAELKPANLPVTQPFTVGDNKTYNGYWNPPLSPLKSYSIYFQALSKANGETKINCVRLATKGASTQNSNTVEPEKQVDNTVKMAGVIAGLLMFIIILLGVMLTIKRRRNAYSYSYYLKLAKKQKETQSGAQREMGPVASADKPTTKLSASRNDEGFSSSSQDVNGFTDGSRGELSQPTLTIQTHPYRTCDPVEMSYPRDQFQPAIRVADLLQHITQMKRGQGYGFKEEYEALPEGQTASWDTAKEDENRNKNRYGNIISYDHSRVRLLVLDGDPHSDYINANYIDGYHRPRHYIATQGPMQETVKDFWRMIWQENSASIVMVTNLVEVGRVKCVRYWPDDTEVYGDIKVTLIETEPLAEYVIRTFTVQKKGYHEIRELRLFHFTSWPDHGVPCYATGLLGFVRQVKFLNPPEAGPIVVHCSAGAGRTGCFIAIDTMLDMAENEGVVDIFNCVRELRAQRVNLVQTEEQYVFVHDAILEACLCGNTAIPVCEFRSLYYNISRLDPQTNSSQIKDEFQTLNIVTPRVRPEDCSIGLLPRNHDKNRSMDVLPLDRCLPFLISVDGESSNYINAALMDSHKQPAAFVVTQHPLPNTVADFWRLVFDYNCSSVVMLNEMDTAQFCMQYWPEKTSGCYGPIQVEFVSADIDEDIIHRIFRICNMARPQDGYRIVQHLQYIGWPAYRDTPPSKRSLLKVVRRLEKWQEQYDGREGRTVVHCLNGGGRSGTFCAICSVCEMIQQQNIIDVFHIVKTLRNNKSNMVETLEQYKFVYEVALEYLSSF
From the text: as §1, §2

[1] = target: T3, PTPRD P249L variant extracellular domain (human, UniProt P23468 21-1265); experiment: extracellular interaction screen: pentameric PTPRD variant ECD on ECD-Fc prey (FIG. 5L)
T3 construct: extracellular domain; also called IG3 mutant
T3 sequence (looked up): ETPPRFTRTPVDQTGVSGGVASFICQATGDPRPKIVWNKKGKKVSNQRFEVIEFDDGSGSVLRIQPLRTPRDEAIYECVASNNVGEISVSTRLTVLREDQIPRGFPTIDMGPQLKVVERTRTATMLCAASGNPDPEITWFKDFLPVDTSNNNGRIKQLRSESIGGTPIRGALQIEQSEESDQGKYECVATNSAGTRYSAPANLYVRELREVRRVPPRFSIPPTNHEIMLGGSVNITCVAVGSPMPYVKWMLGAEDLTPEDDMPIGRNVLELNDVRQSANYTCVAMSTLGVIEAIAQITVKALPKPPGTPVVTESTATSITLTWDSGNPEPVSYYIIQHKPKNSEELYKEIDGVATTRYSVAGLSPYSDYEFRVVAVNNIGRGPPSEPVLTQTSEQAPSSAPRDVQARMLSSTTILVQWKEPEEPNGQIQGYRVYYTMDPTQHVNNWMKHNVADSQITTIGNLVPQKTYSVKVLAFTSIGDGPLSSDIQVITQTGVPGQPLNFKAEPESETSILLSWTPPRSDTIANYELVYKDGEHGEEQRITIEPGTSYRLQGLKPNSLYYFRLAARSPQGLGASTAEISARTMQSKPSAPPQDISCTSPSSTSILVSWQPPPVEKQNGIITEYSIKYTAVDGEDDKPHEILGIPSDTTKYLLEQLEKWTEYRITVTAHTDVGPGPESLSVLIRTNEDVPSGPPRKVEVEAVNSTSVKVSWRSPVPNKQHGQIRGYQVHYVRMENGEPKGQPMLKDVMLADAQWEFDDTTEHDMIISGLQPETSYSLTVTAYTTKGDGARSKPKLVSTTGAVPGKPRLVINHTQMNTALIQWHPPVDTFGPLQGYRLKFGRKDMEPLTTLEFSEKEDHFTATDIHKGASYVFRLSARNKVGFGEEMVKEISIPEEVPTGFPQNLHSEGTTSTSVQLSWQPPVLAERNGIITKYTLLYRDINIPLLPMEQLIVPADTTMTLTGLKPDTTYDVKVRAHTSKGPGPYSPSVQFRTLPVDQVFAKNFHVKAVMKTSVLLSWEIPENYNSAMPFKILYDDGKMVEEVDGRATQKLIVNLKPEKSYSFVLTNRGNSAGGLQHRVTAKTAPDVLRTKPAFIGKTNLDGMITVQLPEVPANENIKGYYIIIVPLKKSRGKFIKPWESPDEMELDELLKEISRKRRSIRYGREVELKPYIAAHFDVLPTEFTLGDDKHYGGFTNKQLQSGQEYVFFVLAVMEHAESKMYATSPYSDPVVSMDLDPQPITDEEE

T1 sequence (P23470 20-1445): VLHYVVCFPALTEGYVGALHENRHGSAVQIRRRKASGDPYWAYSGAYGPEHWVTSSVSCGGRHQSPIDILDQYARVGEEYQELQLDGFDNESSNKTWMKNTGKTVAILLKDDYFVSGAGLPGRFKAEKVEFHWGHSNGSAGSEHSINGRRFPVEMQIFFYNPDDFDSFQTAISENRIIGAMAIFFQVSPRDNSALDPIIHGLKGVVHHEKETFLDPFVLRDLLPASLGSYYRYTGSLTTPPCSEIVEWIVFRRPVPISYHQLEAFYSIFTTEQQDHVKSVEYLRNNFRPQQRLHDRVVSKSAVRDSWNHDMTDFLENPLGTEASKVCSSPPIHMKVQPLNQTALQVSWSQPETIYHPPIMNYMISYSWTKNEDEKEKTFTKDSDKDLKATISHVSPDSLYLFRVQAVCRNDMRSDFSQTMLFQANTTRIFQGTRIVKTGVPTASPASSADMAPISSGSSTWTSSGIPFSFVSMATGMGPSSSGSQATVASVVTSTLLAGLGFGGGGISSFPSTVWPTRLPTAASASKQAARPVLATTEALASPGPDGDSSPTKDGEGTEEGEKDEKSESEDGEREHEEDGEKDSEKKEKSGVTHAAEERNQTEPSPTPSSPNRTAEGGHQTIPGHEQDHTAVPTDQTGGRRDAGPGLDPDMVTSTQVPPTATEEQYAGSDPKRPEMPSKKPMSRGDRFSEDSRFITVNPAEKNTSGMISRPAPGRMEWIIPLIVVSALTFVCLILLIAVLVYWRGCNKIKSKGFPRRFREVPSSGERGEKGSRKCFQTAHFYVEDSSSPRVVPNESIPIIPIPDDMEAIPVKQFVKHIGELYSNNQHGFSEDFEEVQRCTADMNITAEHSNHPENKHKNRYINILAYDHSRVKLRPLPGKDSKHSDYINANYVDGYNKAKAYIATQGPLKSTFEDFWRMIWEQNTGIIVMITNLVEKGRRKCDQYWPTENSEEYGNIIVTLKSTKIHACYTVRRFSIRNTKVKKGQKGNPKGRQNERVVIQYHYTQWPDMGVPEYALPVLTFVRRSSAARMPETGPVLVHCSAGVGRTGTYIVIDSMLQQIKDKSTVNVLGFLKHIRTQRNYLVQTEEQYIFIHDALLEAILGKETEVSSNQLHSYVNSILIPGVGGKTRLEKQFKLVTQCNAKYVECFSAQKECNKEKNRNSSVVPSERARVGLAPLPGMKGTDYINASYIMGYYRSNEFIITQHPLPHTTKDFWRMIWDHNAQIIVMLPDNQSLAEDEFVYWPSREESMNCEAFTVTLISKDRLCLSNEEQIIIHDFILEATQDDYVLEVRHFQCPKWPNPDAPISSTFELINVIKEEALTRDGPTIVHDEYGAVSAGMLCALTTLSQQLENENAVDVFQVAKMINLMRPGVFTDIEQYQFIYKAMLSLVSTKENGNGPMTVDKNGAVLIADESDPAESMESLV

B1: LRFN5 extracellular domain (receptor, human, UniProt Q96NI6 18-529, looked up)
chain: QICPKRCVCQILSPNLATLCAKKGLLFVPPNIDRRTVELRLADNFVTNIKRKDFANMTSLVDLTLSRNTISFITPHAFADLRNLRALHLNSNRLTKITNDMFSGLSNLHHLILNNNQLTLISSTAFDDVFALEELDLSYNNLETIPWDAVEKMVSLHTLSLDHNMIDNIPKGTFSHLHKMTRLDVTSNKLQKLPPDPLFQRAQVLATSGIISPSTFALSFGGNPLHCNCELLWLRRLSREDDLETCASPPLLTGRYFWSIPEEEFLCEPPLITRHTHEMRVLEGQRATLRCKARGDPEPAIHWISPEGKLISNATRSLVYDNGTLDILITTVKDTGAFTCIASNPAGEATQIVDLHIIKLPHLLNSTNHIHEPDPGSSDISTSTKSGSNTSSSNGDTKLSQDKIVVAEATSSTALLKFNFQRNIPGIRMFQIQYNGTYDDTLVYRMIPPTSKTFLVNNLAAGTMYDLCVLAIYDDGITSLTATRVVGCIQFTTEQDYVRCHFMQSQFLGGTM
notes: extracellular domain; Streptavidin tetramer in cell assay; ECD-Fc prey in the variant screen; also called LFRN5
B1: no binding (PTPRG expressed on cells); no binding (PTPRT expressed on cells).

B2: LRRC4B extracellular domain (receptor, human, UniProt Q9NT99 36-576, looked up)
chain: AGGGGVAVTSAAGGGSPPATSCPVACSCSNQASRVICTRRDLAEVPASIPVNTRYLNLQENGIQVIRTDTFKHLRHLEILQLSKNLVRKIEVGAFNGLPSLNTLELFDNRLTTVPTQAFEYLSKLRELWLRNNPIESIPSYAFNRVPSLRRLDLGELKRLEYISEAAFEGLVNLRYLNLGMCNLKDIPNLTALVRLEELELSGNRLDLIRPGSFQGLTSLRKLWLMHAQVATIERNAFDDLKSLEELNLSHNNLMSLPHDLFTPLHRLERVHLNHNPWHCNCDVLWLSWWLKETVPSNTTCCARCHAPAGLKGRYIGELDQSHFTCYAPVIVEPPTDLNVTEGMAAELKCRTGTSMTSVNWLTPNGTLMTHGSYRVRISVLHDGTLNFTNVTVQDTGQYTCMVTNSAGNTTASATLNVSAVDPVAAGGTGSGGGGPGGSGGVGGGSGGYTYFTTVTVETLETQPGEEALQPRGTEKEPPGPTTDGVWGGGRPGDAAGPASSSTTAPAPRSSRPTEKAFTVPITDVTENALKDLDDVMKTTK
notes: extracellular domain; ECD-Fc prey; also called NGL-3; netrin-G ligand-3
B2: no binding [1].
